Test system: T1, BmoR (MarR-type regulator) (Bacteroides fragilis 638R), ORF:dbdd3c1d
T1 sequence: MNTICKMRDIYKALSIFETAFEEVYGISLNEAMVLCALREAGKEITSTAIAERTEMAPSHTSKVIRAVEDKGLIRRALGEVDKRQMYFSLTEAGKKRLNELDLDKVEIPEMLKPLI
Test: EMSA

Sequence | binding
ACGAGACCGATAAATGTGAGTCGGTTCTTTTTCAAAAATGCTTTAATCATCTTTATTTCAGGGTGTTTTAGAATCTGTCTGAATTTTGTTCGAGATTGTTTTGAGATTTATTTTCAAGGATATTCTCTTGTCTCTGTGAAGGCATAGCGGGCTATGTGACGCATGAAAACA (double strand) [BF638R_2699-2701 operon promoter, 171 bp] | no binding
CCTGCTACGCCTCCAATAATAATAATCTTCATTTGAATATATTTTCGTTTTAAAATAGTTTCCTATGGAAATAAACGTTTGCCGACTTAAAAAGGTTCATGGAAAAGCTTAAAAAATTAACAAGTATGGGTTATCTTACTTACGGAAGTGC (double strand) [BF638R_0572-bmoR operon promoter (bmoO), 151 bp] | binds
CCGGCCTCCATATCAAACAATAACCCGTTGCAACCTATGGATATTGGTGGTGTTCCATTCTATCGTACCTATGCCGTTAATTTAACCGTAAGATTCTAAAACATCTATATTGAAAGATATGAAAACATTTAAATATTTATTTGCAGGAGTTTGTTCCGTGT (double strand) [BF638R_4194 promoter (Methods text says BF638R_4199), 161 bp] | no binding
CGTCTGACAGCAAGATAAAGTCCCTTAAAAGGGCCATGTTTCTTAATCGCTTCAATAGCGTATTGCGAACAAGTAGGAGTGAAACGACATGAAGGAGGAGT (double strand) [hlyD fragment (non-competitor DNA), 101 bp] | no binding
